Measurements taken from article PMC4083092.

Key:
[1] = biological target: T1, CPEB1 RRM12 (tandem RRMs) (Homo sapiens, UniProt Q9BZB8 285-355+361-514, internal_change); assay: NMR titration
[2] = biological target: T2, CPEB4 RRM12 (tandem RRMs) (Homo sapiens, UniProt Q17RY0-3 54-256); assay: NMR titration
T2 sequence: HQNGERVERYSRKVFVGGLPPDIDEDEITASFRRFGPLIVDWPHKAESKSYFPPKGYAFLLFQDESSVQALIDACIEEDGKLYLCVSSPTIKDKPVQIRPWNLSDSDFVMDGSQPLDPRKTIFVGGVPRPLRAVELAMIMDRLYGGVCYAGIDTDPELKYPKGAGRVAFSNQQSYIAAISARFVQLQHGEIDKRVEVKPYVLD

[3] = biological target: T1, CPEB1 RRM12 (tandem RRMs); assay: NMR titration and solution structure
[4] = biological target: T1, CPEB1 RRM12 (tandem RRMs); assay: NMR
[5] = biological target: CPEB1 ZZ domain (isolated) (Homo sapiens, UniProt Q9BZB8 503-566); assay: NMR titration

B1: UUUUAU (consensus CPE) (ssRNA)
RNA: UUUUAU
binding result [1]: binds | binding result [2]: binds

B2: UUUUA (ssRNA)
RNA: UUUUA
binding result [3]: binds

B3: CUUUA (ssRNA)
RNA: CUUUA
binding result [4]: binds

B4: UUUUUAU (consensus CPE) (ssRNA)
RNA: UUUUUAU
binding result [5]: no binding
